From article PMC10011572 (Nature Communications, 2023)

What was measured:
[1] = target: zanidatamab precursor (human); experiment: SPR; zani precursor captured on immobilised goat anti-human Fc (CM5, Biacore T200), HER2 ECD 3.75-60 nM flowed; single-cycle, 1:1 Langmuir fit; apparent; capture/MW 0.164867939 RU/kDa
zanidatamab (human) [2] = experiment: SPR; zani captured on immobilised goat anti-human Fc (CM5, Biacore T200), HER2 ECD 3.75-60 nM flowed; single-cycle, 1:1 Langmuir fit; apparent; capture/MW 1.217496547 RU/kDa
[3] = target: zanidatamab precursor (human); experiment: SPR; zani precursor captured on immobilised goat anti-human Fc (CM5, Biacore T200), HER2 ECD 3.75-60 nM flowed; single-cycle, 1:1 Langmuir fit; apparent; capture/MW 0.356947091 RU/kDa
zanidatamab (human) [4] = experiment: SPR; zani captured on immobilised goat anti-human Fc (CM5, Biacore T200), HER2 ECD 3.75-60 nM flowed; single-cycle, 1:1 Langmuir fit; apparent; capture/MW 0.856252506 RU/kDa
zanidatamab (human) [5] = experiment: SPR; zani captured on immobilised goat anti-human Fc (CM5, Biacore T200), HER2 ECD 3.75-60 nM flowed; single-cycle, 1:1 Langmuir fit; apparent; capture/MW 0.273135738 RU/kDa
[6] = target: zanidatamab precursor (human); experiment: SPR; zani precursor captured on immobilised goat anti-human Fc (CM5, Biacore T200), HER2 ECD 3.75-60 nM flowed; single-cycle, 1:1 Langmuir fit; apparent; capture/MW 1.154875901 RU/kDa
[7] = target: zanidatamab precursor (human); experiment: SPR; zani precursor captured on immobilised goat anti-human Fc (CM5, Biacore T200), HER2 ECD 3.75-60 nM flowed; single-cycle, 1:1 Langmuir fit; apparent; capture/MW 2.00002417 RU/kDa
[8] = target: zanidatamab precursor (human); experiment: SPR; zani precursor captured on immobilised goat anti-human Fc (CM5, Biacore T200), HER2 ECD 3.75-60 nM flowed; single-cycle, 1:1 Langmuir fit; apparent; capture/MW 4.911623982 RU/kDa
[9] = target: zanidatamab precursor (human); experiment: SPR; zani precursor captured on immobilised goat anti-human Fc (CM5, Biacore T200), HER2 ECD 3.75-60 nM flowed; single-cycle, 1:1 Langmuir fit; apparent; capture/MW 0.790725842 RU/kDa
[10] = target: zanidatamab precursor (human); experiment: SPR; zani precursor captured on immobilised goat anti-human Fc (CM5, Biacore T200), HER2 ECD 3.75-60 nM flowed; single-cycle, 1:1 Langmuir fit; apparent; capture/MW 0.555428881 RU/kDa
[11] = target: zanidatamab precursor (human); experiment: SPR; zani precursor captured on immobilised goat anti-human Fc (CM5, Biacore T200), HER2 ECD 3.75-60 nM flowed; single-cycle, 1:1 Langmuir fit; apparent; capture/MW 0.703489894 RU/kDa
Zanidatamab (human) [12] = experiment: AUC; sedimentation velocity, HER2 ECD and antibody equimolar (1x), 1 mg/mL total protein in DPBS, 20 °C, c(s) model
zanidatamab (human) [13] = experiment: SPR; zani captured on immobilised goat anti-human Fc (CM5, Biacore T200), HER2 ECD 3.75-60 nM flowed; single-cycle, 1:1 Langmuir fit; apparent; capture/MW 2.080156929 RU/kDa
[14] = target: zanidatamab precursor (human); experiment: SPR; zani precursor captured on immobilised goat anti-human Fc (CM5, Biacore T200), HER2 ECD 3.75-60 nM flowed; single-cycle, 1:1 Langmuir fit; apparent; capture/MW 2.11927331 RU/kDa
[15] = target: zanidatamab precursor (human); experiment: SPR; zani precursor captured on immobilised goat anti-human Fc (CM5, Biacore T200), HER2 ECD 3.75-60 nM flowed; single-cycle, 1:1 Langmuir fit; apparent; capture/MW 0.423374464 RU/kDa
[16] = target: zanidatamab precursor (human); experiment: SPR; zani precursor captured on immobilised goat anti-human Fc (CM5, Biacore T200), HER2 ECD 3.75-60 nM flowed; single-cycle, 1:1 Langmuir fit; apparent; capture/MW 1.008415548 RU/kDa
zanidatamab (human) [17] = experiment: SPR; zani captured on immobilised goat anti-human Fc (CM5, Biacore T200), HER2 ECD 3.75-60 nM flowed; single-cycle, 1:1 Langmuir fit; apparent; capture/MW 2.37652122 RU/kDa
zanidatamab (human) [18] = experiment: SPR; zani captured on immobilised goat anti-human Fc (CM5, Biacore T200), HER2 ECD 3.75-60 nM flowed; single-cycle, 1:1 Langmuir fit; apparent; capture/MW 0.793775709 RU/kDa
[19] = target: zanidatamab precursor (human); experiment: SPR; zani precursor captured on immobilised goat anti-human Fc (CM5, Biacore T200), HER2 ECD 3.75-60 nM flowed; single-cycle, 1:1 Langmuir fit; apparent; capture/MW 0.083234299 RU/kDa
zanidatamab (human) [20] = experiment: SPR; zani captured on immobilised goat anti-human Fc (CM5, Biacore T200), HER2 ECD 3.75-60 nM flowed; single-cycle, 1:1 Langmuir fit; apparent; capture/MW 0.484595665 RU/kDa
[21] = target: zanidatamab precursor (human); experiment: SPR; zani precursor captured on immobilised goat anti-human Fc (CM5, Biacore T200), HER2 ECD 3.75-60 nM flowed; single-cycle, 1:1 Langmuir fit; apparent; capture/MW 3.817573146 RU/kDa
[22] = target: zanidatamab precursor (human); experiment: SPR; zani precursor captured on immobilised goat anti-human Fc (CM5, Biacore T200), HER2 ECD 3.75-60 nM flowed; single-cycle, 1:1 Langmuir fit; apparent; capture/MW 4.096087916 RU/kDa
[23] = target: zanidatamab precursor (human); experiment: SPR; zani precursor captured on immobilised goat anti-human Fc (CM5, Biacore T200), HER2 ECD 3.75-60 nM flowed; single-cycle, 1:1 Langmuir fit; apparent; capture/MW 1.267722403 RU/kDa
[24] = target: zanidatamab precursor (human); experiment: SPR; zani precursor captured on immobilised goat anti-human Fc (CM5, Biacore T200), HER2 ECD 3.75-60 nM flowed; single-cycle, 1:1 Langmuir fit; apparent; capture/MW 0.312928952 RU/kDa
[25] = target: zanidatamab precursor (human); experiment: SPR; zani precursor captured on immobilised goat anti-human Fc (CM5, Biacore T200), HER2 ECD 3.75-60 nM flowed; single-cycle, 1:1 Langmuir fit; apparent; capture/MW 3.104479294 RU/kDa
[26] = target: zanidatamab precursor (human); experiment: SPR; zani precursor captured on immobilised goat anti-human Fc (CM5, Biacore T200), HER2 ECD 3.75-60 nM flowed; single-cycle, 1:1 Langmuir fit; apparent; capture/MW 1.970411967 RU/kDa
[27] = target: zanidatamab precursor (human); experiment: SPR; zani precursor captured on immobilised goat anti-human Fc (CM5, Biacore T200), HER2 ECD 3.75-60 nM flowed; single-cycle, 1:1 Langmuir fit; apparent; capture/MW 0.571435477 RU/kDa
[28] = target: zanidatamab precursor (human); experiment: SPR; zani precursor captured on immobilised goat anti-human Fc (CM5, Biacore T200), HER2 ECD 3.75-60 nM flowed; single-cycle, 1:1 Langmuir fit; apparent; capture/MW 2.899594865 RU/kDa
zanidatamab (human) [29] = experiment: SPR; zani captured on immobilised goat anti-human Fc (CM5, Biacore T200), HER2 ECD 3.75-60 nM flowed; single-cycle, 1:1 Langmuir fit; apparent; capture/MW 0.62396698 RU/kDa
[30] = target: zanidatamab precursor (human); experiment: SPR; zani precursor captured on immobilised goat anti-human Fc (CM5, Biacore T200), HER2 ECD 3.75-60 nM flowed; single-cycle, 1:1 Langmuir fit; apparent; capture/MW 0.365750719 RU/kDa
[31] = target: zanidatamab precursor (human); experiment: SPR; zani precursor captured on immobilised goat anti-human Fc (CM5, Biacore T200), HER2 ECD 3.75-60 nM flowed; single-cycle, 1:1 Langmuir fit; apparent; capture/MW 4.555477221 RU/kDa
[32] = target: zanidatamab precursor (human); experiment: SPR; zani precursor captured on immobilised goat anti-human Fc (CM5, Biacore T200), HER2 ECD 3.75-60 nM flowed; single-cycle, 1:1 Langmuir fit; apparent; capture/MW 2.483423369 RU/kDa
zanidatamab (human) [33] = experiment: SPR; zani captured on immobilised goat anti-human Fc (CM5, Biacore T200), HER2 ECD 3.75-60 nM flowed; single-cycle, 1:1 Langmuir fit; apparent; capture/MW 1.306405834 RU/kDa
Zanidatamab (human) [34] = experiment: SPR; Biacore T200; goat anti-human Fc polyclonal Ab amine-coupled to about 2000 RU on a CM5 chip captures the antibody; increasing concentrations of HER2 ECD injected; single-cycle kinetics, 1:1 binding model; KD of zanidatamab called apparent
[35] = target: T1, Recombinant human HER2 ECD (Homo sapiens, UniProt P04626); experiment: as above; conditions: both partners purified
T1 construct: human epidermal growth factor receptor 2 (HER2), extracellular domain, recombinant; printed mass 72 kDa; The supplier is named for the SPR only; source: bought: Acro Inc

In the case of “Recombinant human HER2 ECD (from UniProt P04626 23-652) (domain or fragment)”, the Kd [1] is reported as 879 pM, the Kd (zanidatamab (human) [2]) is reported as 93.2 pM and the Kd [3] is reported as 927 pM. It also gave a Kd (zanidatamab (human) [4]) of 174 pM, a Kd (zanidatamab (human) [5]) of 149 pM and a Kd [6] of 743 pM. The Kd [7] was 152 pM, the Kd [8] was 35.8 pM and the Kd [9] was 992 pM. The Kd [10] was 679 pM, the Kd [11] was 992 pM and the percent of the total peak area in multimeric complexes (Zanidatamab (human) [12]) was 95%. The Kd (zanidatamab (human) [13]) was 98.9 pM, the Kd [14] was 475 pM and the Kd [15] was 2020 pM. The Kd [16] was 490 pM, the Kd (zanidatamab (human) [17]) was 80.1 pM and the Kd (zanidatamab (human) [18]) was 99.7 pM. The Kd [19] was 890 pM, the Kd (zanidatamab (human) [20]) was 175 pM and the Kd [21] was 136 pM. It also gave a Kd [22] of 119 pM, a Kd [23] of 654 pM and a Kd [24] of 663 pM. The Kd [25] was 311 pM, the Kd [26] was 460 pM and the Kd [27] was 687 pM. For the same molecule, the Kd [28] was 318 pM, the Kd (zanidatamab (human) [29]) was 169 pM and the Kd [30] was 1120 pM. For the same molecule, the Kd [31] was 46.8 pM, the Kd [32] was 93.1 pM and the Kd (zanidatamab (human) [33]) was 91.3 pM. The Kd (Zanidatamab (human) [34]) was 740 pM.

B1: Monovalent one-armed Ab (OAA) with the affinity-improved anti-HER2-ECD2 Fab (antibody, V domains shown)
VH: EVQLVESGGGLVQPGGSLRLSCAASGFTFADYTMDWVRQAPGKGLEWVGDVNPNSGGSIYNQRFKGRFTFSVDRSKNTLYLQMNSLRAEDTAVYYCARNLGPSFYFDYWGQGTLVTVSS
VL: DIQMTQSPSSLSASVGDRVTITCKASQDVSIGVAWYQQKPGKAPKLLIYSASYRYTGVPSRFSGSGSGTDFTLTISSLQPEDFATYYCQQYYIYPATFGQGTKVEIK
notes: as the light chain of m3; also called one variant; copies: + +
In the case of B1, the Kd [35] is reported as 1700 pM.
